Laboratory results: the supplement of paper PMC9112550, “Optimization of the antimicrobial peptide Bac7 by deep mutational scanning” (BMC Biology, 2022)

The sequences below were run on Escherichia coli TOP10 (assay: shrunken log2 fold change of peptide-encoding DNA abundance (4.5 h post-induction vs induction); higher = less antimicrobial activity (less host growth inhibition)). Conditions: time post-induction: 4.5 h; library: site-saturation at positions 5, 18, 19, 20.
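Note: peptides expressed intracellularly from a pBAD plasmid library in pooled LB shake-flask culture, induced with 0.3% L-arabinose, DNA abundance read by NGS, three biological replicates, DESeq2 with apeglm shrinkage.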

Sequence | shrunken log2 fold change
RRIRERPPRLPRPRPRPFWGPRP | 0.0105
RRIRKRPPRLPRPRPRPYKRPRP | -0.338
RRIRPRPPRLPRPRPRPWIVPRP | -0.197
RRIRVRPPRLPRPRPRPLFPPRP | 0.0958
RRIRSRPPRLPRPRPRPPEAPRP | 0.854
RRIRSRPPRLPRPRPRPTHQPRP | 0.417
RRIRNRPPRLPRPRPRPWAEPRP | 0.125
RRIRFRPPRLPRPRPRPYFNPRP | -1.04
RRIRYRPPRLPRPRPRPLFDPRP | 0.802
RRIRKRPPRLPRPRPRPWFKPRP | -0.0948
RRIRERPPRLPRPRPRPVWQPRP | 0.123
RRIRHRPPRLPRPRPRPTPRPRP | 0.609
RRIRWRPPRLPRPRPRPAMGPRP | 0.161
RRIRKRPPRLPRPRPRPGRSPRP | 0.256
RRIRRRPPRLPRPRPRPGMYPRP | -0.0527
RRIRERPPRLPRPRPRPHIFPRP | 0.116
RRIRQRPPRLPRPRPRPFMEPRP | 0.212
RRIRSRPPRLPRPRPRPGWLPRP | 0.177
RRIRLRPPRLPRPRPRPTNMPRP | -0.537
RRIRIRPPRLPRPRPRPGGQPRP | 0.112
RRIRYRPPRLPRPRPRPDLCPRP | 0.0404
RRIRLRPPRLPRPRPRPHSNPRP | -0.443
RRIRGRPPRLPRPRPRPTGWPRP | 1.04
RRIRWRPPRLPRPRPRPRVFPRP | 0.186
RRIRNRPPRLPRPRPRPYTPPRP | -0.0563

Sequence | shrunken log2 fold change
RRIRIRPPRLPRPRPRPTYPPRP | -0.592
RRIRGRPPRLPRPRPRPYQDPRP | 0.0178
RRIRYRPPRLPRPRPRPTKAPRP | -0.0298
RRIRHRPPRLPRPRPRPGRHPRP | -0.0683
RRIRTRPPRLPRPRPRPSEKPRP | -0.0354
RRIRCRPPRLPRPRPRPIYMPRP | -1.29
RRIRYRPPRLPRPRPRPYIMPRP | -0.223
RRIRSRPPRLPRPRPRPAHFPRP | -0.418
RRIRCRPPRLPRPRPRPIRSPRP | -0.389
RRIRWRPPRLPRPRPRPFGVPRP | 0.227
RRIRRRPPRLPRPRPRPQFAPRP | 0.0495
RRIRRRPPRLPRPRPRPAIHPRP | 0.131
RRIRLRPPRLPRPRPRPFYDPRP | 0.00534
RRIRYRPPRLPRPRPRPYDFPRP | -0.138
RRIRLRPPRLPRPRPRPYERPRP | -0.148
RRIRDRPPRLPRPRPRPERMPRP | 0.216
RRIRLRPPRLPRPRPRPPSFPRP | -0.244
RRIRDRPPRLPRPRPRPWWSPRP | -0.0691
RRIRLRPPRLPRPRPRPVMTPRP | -0.148
RRIRPRPPRLPRPRPRPILKPRP | -0.14
RRIRPRPPRLPRPRPRPYECPRP | 0.0143
RRIRGRPPRLPRPRPRPVSPPRP | 0.101
RRIRFRPPRLPRPRPRPDKMPRP | 0.0125
RRIRSRPPRLPRPRPRPFQSPRP | -0.167
RRIRMRPPRLPRPRPRPETTPRP | 3.65

Sequence | shrunken log2 fold change
RRIRYRPPRLPRPRPRPLTIPRP | -0.0265
RRIRGRPPRLPRPRPRPLFAPRP | 1.36
RRIRDRPPRLPRPRPRPYICPRP | -0.148
RRIRDRPPRLPRPRPRPIRPPRP | -0.0136
RRIRQRPPRLPRPRPRPIELPRP | -0.293
RRIRHRPPRLPRPRPRPNPMPRP | -0.00731
RRIRGRPPRLPRPRPRPELWPRP | 2.06
RRIRCRPPRLPRPRPRPNCNPRP | -0.375
RRIRARPPRLPRPRPRPTLFPRP | 0.663
RRIRGRPPRLPRPRPRPPIQPRP | 0.341
RRIRNRPPRLPRPRPRPGILPRP | -0.337
RRIRGRPPRLPRPRPRPEDCPRP | 0.874
RRIRTRPPRLPRPRPRPQGAPRP | -0.0215
RRIRDRPPRLPRPRPRPPRRPRP | 0.635
RRIRQRPPRLPRPRPRPLCHPRP | -0.142
RRIRFRPPRLPRPRPRPFPNPRP | -0.0354
RRIRQRPPRLPRPRPRPRYCPRP | -0.143
RRIRDRPPRLPRPRPRPNCFPRP | 0.156
RRIRERPPRLPRPRPRPFQAPRP | -0.215
RRIRARPPRLPRPRPRPRGRPRP | 0.703
RRIRQRPPRLPRPRPRPQFDPRP | -0.178
RRIRGRPPRLPRPRPRPQRCPRP | 0.0883
RRIRERPPRLPRPRPRPFPAPRP | -0.0357
RRIRWRPPRLPRPRPRPGLMPRP | 0.444
RRIRVRPPRLPRPRPRPLNSPRP | -0.298

Sequence | shrunken log2 fold change
RRIRHRPPRLPRPRPRPRACPRP | 0.0227
RRIRVRPPRLPRPRPRPKTRPRP | 0.63
RRIRTRPPRLPRPRPRPAFPPRP | 0.0262
RRIRARPPRLPRPRPRPHFAPRP | 0.733
RRIRERPPRLPRPRPRPMGRPRP | 0.0998
RRIRPRPPRLPRPRPRPEPKPRP | 2.44
RRIRMRPPRLPRPRPRPFPGPRP | -0.0808
RRIRDRPPRLPRPRPRPPLEPRP | 0.699
RRIRRRPPRLPRPRPRPLVNPRP | 0.0359
RRIRRRPPRLPRPRPRPQFLPRP | -0.0792
RRIRRRPPRLPRPRPRPMQCPRP | 0.00703
RRIRYRPPRLPRPRPRPNNRPRP | -0.00509
RRIRYRPPRLPRPRPRPVHHPRP | -0.211
RRIRLRPPRLPRPRPRPGEYPRP | -0.0271
RRIRFRPPRLPRPRPRPDAIPRP | 0.041
RRIRMRPPRLPRPRPRPIVFPRP | 0.038
RRIRYRPPRLPRPRPRPPLIPRP | -0.185
RRIRNRPPRLPRPRPRPQKPPRP | 0.0646
RRIRRRPPRLPRPRPRPFGIPRP | 0.0306
RRIRERPPRLPRPRPRPGDQPRP | -0.0675
RRIRDRPPRLPRPRPRPVFSPRP | 0.111
RRIRPRPPRLPRPRPRPRKWPRP | 0.671
RRIRCRPPRLPRPRPRPYHIPRP | -0.27
RRIRFRPPRLPRPRPRPAWDPRP | 0.0926
RRIRHRPPRLPRPRPRPFTQPRP | -0.0771

Sequence | shrunken log2 fold change
RRIRIRPPRLPRPRPRPGCIPRP | -0.523
RRIRARPPRLPRPRPRPDCRPRP | 0.0473
RRIRARPPRLPRPRPRPNHIPRP | -0.8
RRIRKRPPRLPRPRPRPCCLPRP | -0.0964
RRIRLRPPRLPRPRPRPCEIPRP | 0.0237
RRIRWRPPRLPRPRPRPPQNPRP | 0.91
RRIRLRPPRLPRPRPRPMVVPRP | -0.0179
RRIRCRPPRLPRPRPRPHALPRP | -0.0688
RRIRARPPRLPRPRPRPWPDPRP | 0.17
RRIRGRPPRLPRPRPRPIHPPRP | 0.0319
RRIRIRPPRLPRPRPRPNQGPRP | 0.0325
RRIRPRPPRLPRPRPRPPQPPRP | 0.441
RRIRTRPPRLPRPRPRPQHLPRP | -0.0898
RRIRMRPPRLPRPRPRPGPNPRP | 0.641
RRIRMRPPRLPRPRPRPPPWPRP | 1.38
RRIRIRPPRLPRPRPRPQQDPRP | -0.442
RRIRIRPPRLPRPRPRPNNDPRP | -0.967
RRIRSRPPRLPRPRPRPHWDPRP | 0.00395
RRIRLRPPRLPRPRPRPCMNPRP | -0.07
RRIRLRPPRLPRPRPRPIRDPRP | -0.0112
RRIRWRPPRLPRPRPRPRGVPRP | 0.756
RRIRNRPPRLPRPRPRPGMFPRP | -0.252
RRIRFRPPRLPRPRPRPCSDPRP | -0.119
RRIRIRPPRLPRPRPRPTDWPRP | 0.0724
RRIRNRPPRLPRPRPRPLCNPRP | -0.324

Sequence | shrunken log2 fold change
RRIRHRPPRLPRPRPRPQNLPRP | -0.00783
RRIRNRPPRLPRPRPRPDEFPRP | -0.0168
RRIRCRPPRLPRPRPRPNVEPRP | -0.216
RRIRHRPPRLPRPRPRPIATPRP | -0.0153
RRIRNRPPRLPRPRPRPMAGPRP | 0.0481
RRIRDRPPRLPRPRPRPVTWPRP | 0.0882
RRIRQRPPRLPRPRPRPGHSPRP | -0.00616
RRIRFRPPRLPRPRPRPHDVPRP | -0.00911
RRIRFRPPRLPRPRPRPRTWPRP | 0.544
RRIRTRPPRLPRPRPRPEPQPRP | 0.927
RRIRGRPPRLPRPRPRPICCPRP | 0.8
RRIRMRPPRLPRPRPRPLSRPRP | 0.349
RRIRWRPPRLPRPRPRPIIPPRP | -0.104
RRIRQRPPRLPRPRPRPIVEPRP | 0.0141
RRIRGRPPRLPRPRPRPATAPRP | 0.979
RRIRERPPRLPRPRPRPHCTPRP | -0.0432
RRIRNRPPRLPRPRPRPRCFPRP | -0.404
RRIRVRPPRLPRPRPRPYQRPRP | -0.0149
RRIRDRPPRLPRPRPRPWWVPRP | -0.335
RRIRPRPPRLPRPRPRPQSSPRP | -0.0675
RRIRMRPPRLPRPRPRPTEEPRP | -0.000967
RRIRRRPPRLPRPRPRPHYAPRP | 0.148
RRIRTRPPRLPRPRPRPMCNPRP | -0.249
RRIRARPPRLPRPRPRPIHVPRP | -0.143
RRIRPRPPRLPRPRPRPRTVPRP | 0.322
